In US20180008672A1, “ANTI-ACTIVIN A ANTIBODIES AND METHODS OF USE THEREOF FOR TREATING PULMONARY ARTERIAL HYPERTENSION” (Regeneron Pharmaceuticals, Inc., priority 2016, published 2018):

System: rat model of pulmonary hypertension induced by monocrotaline
Test: rat model of pulmonary hypertension induced by monocrotaline
Type: in vivo, rat (Sprague Dawley)
Procedure: To further evaluate the effect of anti-Activin A antibodies in pulmonary arterial hypertension, a rat model of pulmonary hypertension induced by monocrotaline was used.
Six to seven week old Sprague Dawley rats were used. Rats were separated into treatment groups such that body weights were similar among different groups. Rats were subcutaneously administered either 40 mg/kg of monocrotaline or 5 mL/kg of saline at day 0. At 14 days post injection, saline-injected rats were orally dosed with PEG 400 (at 50:50 v/v, Affymetrix Inc., #19957) at 5 mL/kg daily for two weeks, and monocrotaline-injected rats were separated into 5 groups with a group (n=9) orally dosed with PEG 400 at 5 mL/kg daily for two weeks, another group (n=12) orally administered macintentan at 30 mg/kg daily for two weeks, and three groups that were both orally dosed with PEG 400 at 5 mL/kg daily for two weeks and subcutaneously treated with either anti-Activin A antibodies, H4H10430P (n=9), H4H10446P2 (n=11), or an isotype control antibody (n=10) at 40 mg/kg twice a week for two weeks.
At day 27, pulmonary artery size and right ventricular function and dimensions of the rats were assessed using a high frequency ultrasound system (Vevo 2100, VisualSonics). For the assessment, rats were anesthetized (with 1.5% isoflurane at a rate of 1.0 cc/mL of medical grade air) and their temperature was monitored with a rectal temperature probe and held at approximately 37° C. with a heated platform (Vevo 2100, Visualsonics) and a warming lamp. Both brightness-mode (B-mode) and motion-mode (M-mode) imaging were used. B-mode imaging of the rat heart in cross-section was used to determine pulmonary artery cross-sectional area (PA CSA) at the level of the pulmonary valve. […] was used to determine the pulsed wave velocity time integral (VTI), which is derived from the area under the curve of representative Doppler tracings of blood flow through the pulmonary artery. Right ventricular stroke volume (RV SV) was calculated from the product of PA CSA and VTI. Right ventricular cardiac output (RV CO) was calculated from the product of SV and heart rate (HR). M-mode imaging was used to determine right ventricular free wall (RVFW) thickness during diastole and systole. […]
Right ventricular pressure was subsequently assessed for all treatment groups. […] The catheter was connected to pressure/volume instrument (MPVS-300, Millar Instruments, Inc.) that measured heart rate as well as both diastolic and systolic right ventricular pressures. […] Readings were quantified from a 60 second interval of the pressure tracing (following a 2 minute period of recording to allow for pressure stabilization). The parameters analyzed were RV diastolic and systolic pressures, heart rate and ventricular contractile function. […]

[1] = monocrotaline 40 mg/kg SC day 0, antibodies 40 mg/kg SC 2x/wk, macitentan 30 mg/kg PO daily from day 14 for two weeks, ultrasound day 27

B1: H4H10430P: fully human anti-Activin A antibody, human IgG4 Fc; HCVR/LCVR SEQ ID NOs 66/74 (antibody, V domains shown)
VH: EVQLVESGGGLVQPGRSLRLSCKASGFAFDDFAMHWVRQAPGKGLEWVSGIVWNSGDIGYADSVKGRFTISRDNAKNSLYLQLNSLRTEDTALYFCVKDMVRGLMGFNYYGMDVWGQGTTVTVSS
VL: EIVLTQSPATLSLSPGERATLSCRASQTISTYLVWYRQRPGQAPSLLIYDASNRATDIPARFSGSGSGTDFTLTISSLEPEDFAVYYCQQRSNWPITFGQGTRLEIK
PA CSA (Ave ± SEM) [1]: 9.439 ± 0.516%% mm^2 | Right Ventricular cardiac output (Ave ± SEM) [1]: 130.0 ± 12.5 mL/min | Stroke Volume (Ave ± SEM), right ventricular [1]: 362.8 ± 32.6 µL | effect on PA CSA (in words) (monocrotaline-injected rats, FIG. 3A): restored PA CSA to values measured for saline-injected PEG 400 dosed rats
